Where “and” joins values, the source holds several entries; their conditions need not be identical. Identical values can stand only once.
What follows are sequences tested against p53 (94-393) WT, thermostable deltaN (Homo sapiens) (UniProt P04637) (assay: fluorescence polarization). Settings: FP at 25 °C, 2.5 nM FAM-dsDNA, 200 or 275 mM NaCl, 20 mM bis-tris propane pH 6.8, 5% glycerol, 0.1 mg/ml BSA, 0.5 mM TCEP, 10 min; mean of n = 2.
Sequence of p53 (94-393) WT, thermostable deltaN (Homo sapiens) (P04637 94-393, stated change not applied): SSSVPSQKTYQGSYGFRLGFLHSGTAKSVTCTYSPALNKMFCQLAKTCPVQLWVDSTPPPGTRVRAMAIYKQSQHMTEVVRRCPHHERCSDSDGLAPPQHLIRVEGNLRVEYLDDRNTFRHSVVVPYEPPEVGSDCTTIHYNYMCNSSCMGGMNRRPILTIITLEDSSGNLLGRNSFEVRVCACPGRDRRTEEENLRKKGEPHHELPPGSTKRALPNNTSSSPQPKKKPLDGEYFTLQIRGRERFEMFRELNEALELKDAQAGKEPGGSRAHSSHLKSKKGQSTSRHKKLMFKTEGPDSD
In the case of “ATGATGATAGACAAGTCAGGACTTAACTATATGATG (double strand) [MDM2 RE]”, the Kd is reported as 20 nM and 97 nM. For “ATGATGATAGGCATGTCCCAACATGCCCATATGATG (double strand) [APBB2 RE]”, the Kd was 10 nM and 40 nM. With “ATGATGATGAACATGCCCCAGCATGTTGATATGATG (double strand) [p21_8/13]” the Kd was 33 nM and 99 nM. In the case of “ATGATGATGAACATGTCCCAACATGTTGATATGATG (double strand) [p21 RE]”, the Kd is reported as 26 nM and 23 nM. In the case of “ATGATGATGAACGTGTCCGGACAGGTCGATATGATG (double strand) [NOXA_3/13]”, the Kd is reported as 23 nM and 60 nM. In the case of “ATGATGATGAGCGTGTCCGGGCAGGTCGATATGATG (double strand) [NOXA RE]”, the Kd is reported as 45 nM and 446 nM. For “ATGATGATGGGCAGGTCCGGACTTGTCGATATGATG (double strand) [BAX_8/13]”, the Kd was 8 nM and 40 nM. For “ATGATGATGGGCATGTCTGGGCATGTCTATATGATG (double strand) [3Q05 pdb RE]”, the Kd was 6 nM.

Same assay, conditions: inosine (written as G): strand 1 nt 21 (RE position 13); strand 2 nt 21 (opposite RE position 8); FP at 25 °C, 2.5 nM FAM-dsDNA, 200 or 275 mM NaCl, 20 mM bis-tris propane pH 6.8, 5% glycerol, 0.1 mg/ml BSA, 0.5 mM TCEP, 10 min; mean of n = 2
In the case of “ATGATGATGGGCAGGCCCGGGCTTGTCGATATGATG (double strand) [BAX_8/13 I/C]”, the Kd is reported as 9 nM and 83 nM.

Same assay, conditions: inosine (written as G): strand 2 nt 21 and 11 (opposite RE positions 8 and 18); supplement also prints I at strand 1 nt 21 (RE position 13), Table 1 prints G there; FP at 25 °C, 2.5 nM FAM-dsDNA, 200 or 275 mM NaCl, 20 mM bis-tris propane pH 6.8, 5% glycerol, 0.1 mg/ml BSA, 0.5 mM TCEP, 10 min; mean of n = 2
In the case of “ATGATGATAGGCATGCCTAGGCATGCCTATATGATG (double strand) [6FJ5_8/18 I/C]”, the Kd is reported as 8 nM and 58 nM.
